According to US20260285971 (published 2026):
Changes are numbered by the printed parent chain.

T1: human GPRC5D (human)
T1 chain: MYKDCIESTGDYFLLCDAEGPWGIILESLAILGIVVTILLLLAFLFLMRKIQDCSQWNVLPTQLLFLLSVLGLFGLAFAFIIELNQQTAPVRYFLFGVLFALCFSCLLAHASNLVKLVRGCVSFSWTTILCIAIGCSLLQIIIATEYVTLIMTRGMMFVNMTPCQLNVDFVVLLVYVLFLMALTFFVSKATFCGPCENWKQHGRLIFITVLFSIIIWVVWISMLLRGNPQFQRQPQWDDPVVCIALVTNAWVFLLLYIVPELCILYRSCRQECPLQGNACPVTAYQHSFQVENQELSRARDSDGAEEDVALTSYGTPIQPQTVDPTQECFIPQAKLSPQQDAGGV

B1: Lab04-huFc (antibody, V domains shown)
VH: EVQLQASGGGSVQAGGSLRLSCVASGFPYSTSRVGWFRQAPGKEREGVATIVPGTGYTYYADSVKGRFTISQDSAKNTVYLQMNSLKPEDTAVYYCAAGDRRLLLNLLAPADYFYWGQGTQVTVSS
B2: HAB04-H7 (antibody, V domains shown)
VH: EVQLVASGGGLVQPGGSLRLSCAASGFPYSTSRMGWFRQAPGKEREGVATIVPGTGYTYYVDSVKGRFTISQDNAKNSLYLQMNSLRAEDTAVYYCAAGDRRLLLNLLAPADYFYWGQGTMVTVSS
B3: HAB04-H10 (antibody, V domains shown)
VH: B2 VH with N74S
B4: HAB04-H14 (antibody, V domains shown)
VH: B2 VH with V61A
B5: HAB04-H4 (antibody, V domains shown)
VH: B2 VH with A6E, N74S
B6: HAB04-H3 (antibody, V domains shown)
VH: B2 VH with A6E
B7: HAB04-H8 (antibody, V domains shown)
VH: B2 VH with V5Q, A6E, A23V
B8: HAB04-H5 (antibody, V domains shown)
VH: B2 VH with A6E, M34V, L79V
B9: Lab01-huFc (antibody, V domains shown)
VH: EVQLQASGGGSVQAGGSRRLSCVASGYAGGIAYMAWFRQTPGKGREGVALIATSGTTSYANSVKGRFTIFRDGADNTVYLEMSSLKPEDTATYYCAAKSRLGWPGLETSQFKYWGQGTQVTVSS
B10: HAB01-H1 (antibody, V domains shown)
VH: EVQLVESGGGLVQPGGSLRLSCAASGYAGGIAYMAWFRQAPGKGREGVANIATSGTTYYVDSVKGRFTISRDGAKNSLYLQMNSLRAEDTAVYYCAAKSRLGWPGLETSQFKYWGQGTMVTVSS
B11: HAB01-H6 (antibody, V domains shown)
VH: B10 VH with E6A, N50L, Y58S, L78V
B12: HAB01-H8 (antibody, V domains shown)
VH: B10 VH with N50L, Y58S, K75D, L78V
B13: HAB01-H3 (antibody, V domains shown)
VH: B10 VH with N50L, Y58S
B14: Lab02-huFc (antibody, V domains shown)
VH: DVQLQASGGGSVQAGESLRLSCAASGYLYMGWFRQAPGKEREGVAAIVTQSGLTGYADSVKGRFTISQDNAENRIYLQMNSLKPEDTAMYYCAAKSRLGWTLSPSAYNYWGRGTQVTVSS
B15: HAB02-H2 (antibody, V domains shown)
VH: EVQLVESGGGVVQPGRSLRLSCAASGYLYMGWFRQAPGKEREGVAVIVTQSGLTYYADSVKGRFTISQDNSKNRLYLQMNSLRAEDTAVYYCAAKSRLGWTLSPSAYNYWGRGTLVTVSS
B16: HAB02-H3 (antibody, V domains shown)
VH: B15 VH with V46A
B17: HAB02-H8 (antibody, V domains shown)
VH: B15 VH with V46A, Y55G, L75I
B18: HAB02-H7 (antibody, V domains shown)
VH: B15 VH with V5Q, E6A, V46A, Y55G
B19: HAB02-H6 (antibody, V domains shown)
VH: B15 VH with E1D, V46A, Y55G
B20: HAB02-H4 (antibody, V domains shown)
VH: B15 VH with V46A, Y55G
B21: HAB02-H5 (antibody, V domains shown)
VH: B15 VH with V46A, Y55G, S71A
B22: HAB02-H1 (antibody, V domains shown)
VH: B15 VH with Q68R
B23: HAB03-H11 (antibody, V domains shown)
VH: DVQLVESGGGLVQPGGSLRLSCAASGDTANCIGWFRQAPGKGREGVAAIYTGLGNTYYANSAKGRFTISQDNAKNSVYLQMNSLRAEDTAVYYCAAGGILGRFCSRYFGQGTMVTVSS
B24: HAB03-H5 (antibody, V domains shown)
VH: B23 VH with D1E
B25: HAB03-H9 (antibody, V domains shown)
VH: B23 VH with D1E, N30S
B26: HAB03-H8 (antibody, V domains shown)
VH: B23 VH with D1E, R43L
B27: HAB03-H10 (antibody, V domains shown)
VH: B23 VH with D1E, Q70R
B28: HAB03-H12 (antibody, V domains shown)
VH: B23 VH with D1E, E6A
B29: Lab03-huFc (antibody, V domains shown)
VH: DVQLQASGGGSVQAGGSLRLSCAASGDTANCIGWFRQAPGKGREGVAAIYTGLGNTYYANSAKGRFTIAQDNAKNTVYLQMNSLKPEDSAMYYCAAGGILGRFCSRYFGQGTQVTVSS

Target: T1, human GPRC5D
Experiment: ELISA

| EC50 | Binder |
| --- | --- |
| 0.0353 nM | B1 |
| 0.0533 nM | B2 |
| 0.0481 nM | B3 |
| 0.0349 nM | B4 |
| 0.0382 nM | B5 |
| 0.034 nM | B6 |
| 0.0311 nM | B7 |
| 0.0333 nM | B8 |

Target: T1, human GPRC5D
Experiment: ELISA
Remark: another data set of the same source

| EC50 | Binder |
| --- | --- |
| 0.0182 nM | B9 |
| 0.023 nM | B10 |
| 0.0178 nM | B11 |
| 0.0336 nM | B12 |
| 0.0259 nM | B13 |

Target: T1, human GPRC5D
Experiment: ELISA
Remark: another data set of the same source

| EC50 | Binder |
| --- | --- |
| 0.053 nM | B14 |
| 0.0381 nM | B15 |
| 0.042 nM | B16 |
| 0.0409 nM | B17 |
| 0.0396 nM | B18 |
| 0.0362 nM | B19 |
| 0.0395 nM | B20 |
| 0.0406 nM | B21 |
| 0.0405 nM | B22 |

Target: T1, human GPRC5D
Experiment: ELISA
Remark: another data set of the same source

| EC50 | Binder |
| --- | --- |
| 0.0338 nM | B23 |
| 0.0353 nM | B24 |
| 0.0326 nM | B25 |
| 0.0462 nM | B26 |
| 0.0324 nM | B27 |
| 0.0307 nM | B28 |
| 0.0319 nM | B29 |

Target: T1, human GPRC5D
Experiment: FACS molp-8

| EC50 | Binder |
| --- | --- |
| 0.625 nM | B9 |
| 3.3 nM | B10 |
| 0.755 nM | B11 |
| 1.24 nM | B12 |
| 1.37 nM | B13 |

Target: T1, human GPRC5D
Experiment: FACS molp-8
Remark: another data set of the same source

| EC50 | Binder |
| --- | --- |
| 0.875 nM | B14 |
| 0.742 nM | B15 |
| 1.6 nM | B16 |
| 1.06 nM | B17 |
| 0.547 nM | B18 |
| 1.54 nM | B19 |
| 1.3 nM | B20 |
| 1.06 nM | B21 |
| 0.602 nM | B22 |

Target: T1, human GPRC5D
Experiment: FACS molp-8
Remark: another data set of the same source

| EC50 | Binder |
| --- | --- |
| 1.97 nM | B1 |
| 2.67 nM | B2 |
| 4.3 nM | B3 |
| 1.35 nM | B4 |
| 2.71 nM | B5 |
| 3.04 nM | B6 |
| 1.74 nM | B7 |
| 2.8 nM | B8 |

Target: T1, human GPRC5D
Experiment: FACS molp-8
Remark: another data set of the same source

| EC50 | Binder |
| --- | --- |
| 0.812 nM | B23 |
| 0.738 nM | B24 |
| 0.849 nM | B25 |
| 1.22 nM | B26 |
| 0.762 nM | B27 |
| 0.642 nM | B28 |
| 0.599 nM | B29 |

Target: T1, human GPRC5D
Experiment: FACS NCI-H929

| EC50 | Binder |
| --- | --- |
| 0.672 nM | B14 |
| 0.299 nM | B15 |
| 0.51 nM | B16 |
| 0.401 nM | B17 |
| 0.22 nM | B18 |
| 0.317 nM | B19 |
| 0.438 nM | B20 |
| 0.501 nM | B21 |
| 0.312 nM | B22 |

Target: T1, human GPRC5D
Experiment: FACS NCI-H929
Remark: another data set of the same source

| EC50 | Binder |
| --- | --- |
| 0.915 nM | B1 |
| 1.34 nM | B2 |
| 1.21 nM | B3 |
| 0.711 nM | B4 |
| 1.41 nM | B5 |
| 1.35 nM | B6 |
| 1.28 nM | B7 |
| 1.02 nM | B8 |

Target: T1, human GPRC5D
Experiment: FACS NCI-H929
Remark: another data set of the same source

| EC50 | Binder |
| --- | --- |
| 1.12 nM | B23 |
| 0.892 nM | B24 |
| 0.895 nM | B25 |
| 1.41 nM | B26 |
| 0.944 nM | B27 |
| 0.808 nM | B28 |
| 0.909 nM | B29 |

Target: T1, human GPRC5D
Experiment: FACS NCI-H929
Remark: another data set of the same source

| EC50 | Binder |
| --- | --- |
| 0.653 nM | B9 |
| 1.63 nM | B10 |
| 0.666 nM | B11 |
| 1.41 nM | B12 |
| 1.02 nM | B13 |

Target: T1, human GPRC5D
Experiment: FACS RPMI-8226

| EC50 | Binder |
| --- | --- |
| 0.627 nM | B23 |
| 41.5 nM | B24 |
| 0.777 nM | B25 |
| 0.66 nM | B26 |
| 1.43 nM | B27 |
| 51.1 nM | B28 |
| 0.603 nM | B29 |

Target: T1, human GPRC5D
Experiment: FACS RPMI-8226
Remark: another data set of the same source

| EC50 | Binder |
| --- | --- |
| 2.08 nM | B9 |
| 103 nM | B10 |
| 25.7 nM | B11 |
| 1.77 nM | B12 |
| 36 nM | B13 |

Target: T1, human GPRC5D
Experiment: FACS RPMI-8226
Remark: another data set of the same source

| EC50 | Binder |
| --- | --- |
| 1.75 nM | B14 |
| 3.56 nM | B15 |
| 1.88 nM | B16 |
| 1.5 nM | B17 |
| 0.257 nM | B18 |
| 10.2 nM | B19 |
| 47.9 nM | B20 |
| 1.76 nM | B21 |
| 3.72 nM | B22 |

Target: T1, human GPRC5D
Experiment: FACS RPMI-8226
Remark: another data set of the same source

| EC50 | Binder |
| --- | --- |
| 2.49 nM | B1 |
| 2.42 nM | B2 |
| 3.05 nM | B3 |
| 1.64 nM | B4 |
| 2.29 nM | B5 |
| 2.81 nM | B6 |
| 1.68 nM | B7 |
| 2.05 nM | B8 |
